Among the data in a protein production outcome set (Wang et al. 2014) are protein production values, retold here.

A short description of the series: label from the status in PepcDB records.

Consider “MVNYKEKLDEAIHLTQQKGFEQTRAEWLMLDVFQWTRTDFVVHMHDDMPKAMIMKFDLALQRMLLGEPIQYIVGFASFYGRTFDVNSNCLIPRPETEEVMLHFLQQLEDDATIVDIGTGSGVLAITLKCEKPDLNVIATDISLEAMNMARNNAEKHQSQIQFLTGDALKPLINEGIKLNGLISNPPYIDEKDMVTMSPTVTRFEPHQALFADNHGYAIYESIIEDLPHVMEKGSPVVFEIGYNQGEALKSIILNKFPDKKIDIIKDINGHDRIVSFKW”, for which the protein production result is recorded as “failed”.

Regarding “MVPLESSTLFGVYGGFTDSMMMRETTTNNQDPSGDTCSVSDPAPGSTDYYNISSSPVKDDGTAPKNDVVCSINVDDNKDKSWLRLGIGPEENTDGSYKLQRCCSKNGSGRENSLELSLFSSSSTAVSSSIDHLPTQPLQLPYHHDQLLTMRGPSLVYNHQLMKPQTLLNRGFSFPSSKPWIPQYMAPFRPSSLSDRDVTNNNSLSRSCCVDEGGAGPSSEFRVLDPPRRPHSGLWFLLQASQFQ”, the protein production entry is “failed”.

For “MVPMASNNLAYIKLRLLSLLVGLGIAALASLIIYAVAYYLFGIYSIGIIFGVFVLVLMMDLLQWFIGPYIVDMVYRAKKADPNRYGNIIAIVEEVAKLNGIRPPTLYISEVSFPNAFAYESPIAGRRIAITRPLLGILNEDELRAVIGHEIGHLKHHDSAVIMAIGLIPTLIFYFAYTTLFAGDRRNGGSAIILALVLMVVSFLFNIMVLSVNRLRESYADANAALTIPNGARNLQTALAKIVRYGSSAKNTAASMLLFANYDMDREDVETLIDKWRTMRVGILSDLFSDHPHPAKRIRLLDKLQDSS”, the protein production entry is recorded as “failed”.

On to “MVPPKLKQALELFKSLPKELRSQVLLEYAAKVPPPPPGVELERVHECQTPFFVHADVEGGKVRLYFHVPDEAPTVKAFAGLLREGLEGESPEAVLEVPPGFYRGYGLEEFFTPLRLRGLEAALLRLQAQVRKALTS”, for which the protein production entry is reported as “not failed”.

In the case of “MVQAWYMDESTADPRKPHRAQPDRPVSLEQLRTLGVLYWKLDADKYENDPELEKIRKMRNYSWMDIITICKDTLPNYEEKIKMFFEEHLHLDEEIRYILEGSGYFDVRDKEDKWIRISMEKGDMITLPAGIYHRFTLDEKNYVKAMRLFVGEPVWTPYNRPADHFDARVQYMSFLEGTA”, the protein production entry was “not failed”.

“MVQEIIVDSGDIEFLTTPKEYKQQLLSLIECARQRIFITALYLQDDEAGREILHALYQAKANFPTIEINIFVDFNRGQRGLIGEKASLGNRALYLKLAHEYPHTVNIYGVAVKRKELEHHHHHH”: the protein production result was “failed”.

For “MVQRITIAPQGPEFSRFVMGYWRLMDWNMSARQLVSFIEEHLDLGVTTVDHADIYGGYQCEAAFGEALKLAPHLRERMEIVSKCGIATTAREENVIGHYITDRDHIIKSAEQSLINLATDHLDLLLIHRPDPLMDADEVADAFKHLHQSGKVRHFGVSNFTPAQFALLQSRLPFTLATNQVEISPVHQPLLLDGTLDQLQQLRVRPMAWSCLGGGRLFNDDYFQPLRDELAVVAEELNAGSIEQVVNAWVLRLPSQPLPIIGSGKIERVRAAVEAETLKMTRQQWFRIRKAALGYDVP”, the protein production result is “not failed”.

Turning to “MVQTKRYAGLTAANTKKVAMAAPMFSIIIPTLNVAAVLPACLDSIARQTCGDFELVLVDGGSTDETLDIANIFAPNLGERLIIHRDTDQGVYDAMNRGVDLATGTWLLFLGADDSLYEADTLARVAAFIGEHEPSDLVYGDVIMRSTNFRWGGAFDLDRLLFKRNICHQAIFYRRGLFGTIGPYNLRYRVLADWDFNIRCFSNPALVTRYMHVVVASYNEFGGLSNTIVDKEFLKRLPMSTRLGIRLVIVLVRRWPKVISRAMVMRTVISWRRRR”, the protein production entry is reported as “failed”.

Turning to “MVREGFDVTLVEARERGGLETSYANGGQLSYRYVAPLADSGVPAQALGWLLRNDAPLRLRPRLDPAQWRWLLGFLAACRGSLNRRNAAHLLRLALLSQRTLQDWREEDGLDGFDWRRNGKLVAFRQPASFARARQGLADPSAQFVLTAAECLALEPALSAAPFVGGIHTPDEEVADCHAFCVQLAERLQASGHCRQLHGRRVTKIVEGGAAVRGVEVGGDLIEADHVVLAAGYRSAELMLPGLRLPLYPLKGYSLTLPVGAQHRAPDTSITDYDRKIVYARIGERLRIAAMVDIVGFDPGLEPARLALLRQQARDTFPQGGDFDAAVEWAGMRPATPTGVPLVGNGGYRNLWLNLGHGALGFTLACGSGRLLAEQIGRRPPSIDTTGLLPRGALAG”, the protein production result is listed as “failed”.

As for “MVRKLRHFGDRLREEPDKFRFVLSRALWVTGLCRLITFSFPAGYRMRFYPSAISAGLWRDRNFRSEDADFVAGYLRPGETFVDVGANVGQLSLVAARRVTSSGRTIAIEAHPRTCNFLRGNVRLNGLPIEIHNVAVGSECGELFFTNFRSDDMNFAYAASPRNGSALRVPVATLDSIIGERPVDLLKVDVEGFECDLLRGAAQTLHNCRCLYIEDSEPNLRRAGSSRVELYDRLSEGGFELFHVRGKRLERVSVQAAGPLTENLIAVRGSDLPDALARTGFCLA”, the protein production result was “failed”.

On to “MVRLDLPWDLVDEILSRLPATSLGRLRFTCKRWNALFKDPEFITKQFHKAAKQDLVLMLSNFGVYSMSTNLKEIPNNIEIAQVFHCNGLLLCSTEEGNKTKLVVVNPCTGQTRWIEPRTDYNYNHDIALGYGNNSTKKSYDSYKILRITYGCKLVEIFELKSNSWRVLSKVHPNVEKHYYGGVSFKGNTYWLSYTKFNILSFDFTTETFRSVPLPFLYQDGFVTLALSVVREEQLLLLRSRFDMGQVGIWMCNKIDTETVLSWSKSFTLEFDSLRDLPVMSILRIFIEEDKKVIVVDCDDRWKENMIYIVGKNGFKKLSYEKDRSNLWRLPFFFSYVPSLVGLYPPM”, for which the protein production result was “failed”.

For “MVRLIFSDIDGTLINSNFKVTPKTRQGIKQIVAQGATFVPISARMPEAITPIMEQIGIDSYIISYNGALIQDMQQKTIASHTMDGQVALQVCSYVSKHYSKIAWNVYRYHEWYSCDKENEWVQKEEEIVGLQSKEMSLMELEKQDRIHKLLLMGEPSLMGELENTLKAQYPHLSIAQSAPYFIEIMAPGIEKGKSAKTLADYLDISLADSIAFGDNYNDLNLLEIVGKGFVMGNAPKDLQERIGNVTQDNDNDGIYYALVEYMEN”, the protein production entry is “failed”.

As to “MVRNMLIESVLFLAAGLFMLSYGSDWFVLGASRVAKQFNISSFVIGATIVAFGTSLPEIVTSAYAASTGSVELAVGNALGSCIANIGLVLGLSLIISTVFIKNRSVLKNGYLYIIYTIIFTAIGYNGFSFFDGIFLLFLLLVYVVYTIKSGEMDDEEHEKSITFKKAIIYLLIGLLFVILGSSFFVDGAKGLASAFGVSEKIIGFTIVAFGTSLPELSVSFAAARQKLGGIVIGNVIGSNIANMFGALAIASIIHEIPAVKFELSVNILMVLLLIAMMSKEKIKAVLNLNSTKEYLSKITKADGLILILIYLLFVLGLTGIF”, the protein production result is “failed”.

As for “MVRNSMKAEYDIDHLPHQTFYGDYSKTLVPMNKNSQIITKIKPKIRIIHIFAPEIINTDVKNFRTLVQSLTGKPEITKTGSKKKITNTNFPAPPGLPQDSGQEHTAELDNRIIGSHVVKEEWGSSSNTNTYFDFDGLIDLDEDDNIFSSRWFDLQQQ”, the protein production result is recorded as “failed”.

As for “MVRRTRAEMEETRATLLATARKVFSERGYADTSMDDLTAQASLTRGALYHHFGDKKGLLAAVVEQIDAEMDERLQAISDTAEDDWEGFRCRCRAYLEMALEPEIQRIVLRDARAVLGGASPDSQRHCVESMQRLIDNLIRQGVVAEADPQALASLIYGSLAEAAFWIAEGEDGNARLAQGVAALELLLRGLLVKPR”, the protein production result is on record as “not failed”.

Consider “MVRVCACLIVKNEAAHLARCLGSVQPWVDDIVVVDTGSTDETPAIARQFTERLFTFPWQDDFAAARNYSLEQATGDWILVIDADEVLVTLQEPPVPLGQQLAGSPFTAYQLLRREIGTGEQFSDFAIVRLFRNLPTLRYQGRFHEQLVSTAAAPLTIGTLETLRIDHYGYQPAQIQAKMRDRNIPILERIRASEGLPLHLLFALADMYQAVNNPVEAENCYQELFDRLLPHLLSGQLPENAPGALPEILNQLGRRLLATGDHDTLQLLCQQGLAWFPTYPPLNDLAGRWLMTLGFPLGATAYFEYCLELGRTNGYSKQMIFPLGYVREIAAEQLGRAYEALGDRERAAAAFAQAAALRQGKAHPQLEHHHHHH”, for which the protein production result is listed as “not failed”.

For “MVRVVRHSRGTCNRGLYEVRELARNRTLQQWGVEDSAELYGIRNWGAGYFDVAQNGDVVVYPFGHNRGPAVSIPEIIGGMRERGYDMPVLLRIENILDSQITSLHTSFRNAIGSLGYKGEYRGIFPIKVNQQQQVVEKIAQFGSHYHHGLEVGSKAELIAAVSQLRDREACLVCNGYKDEEFIDLGLHAVRLGFMCIFVLEMPGELDLILERGEALGVKPIIGVRAKLSVKAGGHWTDSGGERSTFGLTTSQIVDVVDRLKEKGMLDCFKLLHYHLGSQVPNIRDIRAAVMEACRIYAGLVQEGAAMGFLDLGGGLAVDYDGSHTNFVSSRNYTLDEYCADIVEAVMTTLDEQNIPHPHIVTESGRATVAYYSMLLFNILDVSRVEIGNLPDALPEDTPEPVRNMREVLAGMTLRNLQECYNDALYYRDAVRQLFLTGQVTLRQRTLSERLFWAIMKRIAQEKQKLKHVPKDLAEIDVALADIYYGNFSVFQSLPDSWAIDQLFPVMPVHRLQELPSRQGILSDITCDSDGRIDHFIDPQGMKGTLDLHPLRDGEEYYLGVFLVGAYQETLGDLHNLLGDTNVVSVRVHEDGTYEFVREIRGDSVADILSYVEYDPRRIYEDIRELAERAVREGRITASDRFRVMQAYEDGLRGYTYFERLEHHHHHH”, the protein production entry is “failed”.

As to “MVSFRSRSNPAVVILGLGRFGMALGEELVHSGVEVMGIDTNPAVVDKASAILTYAAVADTTSEEALRQLAVNEASRVVIGIGSDMGASLLTASAVVEFNIPSIWAKALNNSHAKILKQIGVHHIIRPEQDTGRRIAHLMNGRVQEYAEFDRDYAIVKIAPPVSALGKKVCDFDRVQIIAVRPAGGMFRQSKPEMVLRSGDLILAAGNPDELERFGTLD”, the protein production entry is recorded as “failed”.

As for “MVSLVMSGLTFWAVNTIQQDAQVNDTRFGRDLGLLLAANVAPLVADHNLTEVAQFSQRFYSSTSSVRYMLYADETGKIFFGIPFWEPEVENSLSIERRIQLPEEYPGDGEKPMVRQHMSPDGIVTDVFIPLIVDKKYLGVLAIGINPNQTAVISTNFTRDVTIAVFITIWVMVILAGVVNALTITKPIKELLVGVKQIAAGNFKQRIDLPLGGELGELILNFNEMAERLERYEEQNIEELTAEKAKLETLVSTIADGAVLIDNNMQVILVNPTARHIFGWEGADDVVGSNVLHHLPPAVQMEITRPLYEMAAGECDSAEFRLTLNQPSNRTIRILLTTVLNLQRESIKGIAITVQDITREVELNEAKSQFISNVSHELRTPLFNIKSFIETLHDYGEDLSLEERQEFLQTVNHETDRLTRLVNDVLDLSKLESGRSYSFDGVDLAQAIEQTLRTYQLNARDKGIELIQDVAPGLPLVLGNYDLLLQVLANLVGNALKFTSSGGKIAIRTYVLNTKSNSPNQPAQVRIEVSDTGIGIAQEDQQAIFDRFFRVENRVHTLEGTGLGLSIVRNIVERHRSRVNLVSEVGVGTTFWFDLILFEDEAPKKMVESGEEKAAMPTS”, the protein production result is on record as “failed”.
